Target: TNF-α (UniProt P01375)
Assay: cell-based or functional assay

Sequence of recombinant human TNFR:Fc fusion protein (TNFR-II:Fc), protein A purified, not HIC-fractionated (chain): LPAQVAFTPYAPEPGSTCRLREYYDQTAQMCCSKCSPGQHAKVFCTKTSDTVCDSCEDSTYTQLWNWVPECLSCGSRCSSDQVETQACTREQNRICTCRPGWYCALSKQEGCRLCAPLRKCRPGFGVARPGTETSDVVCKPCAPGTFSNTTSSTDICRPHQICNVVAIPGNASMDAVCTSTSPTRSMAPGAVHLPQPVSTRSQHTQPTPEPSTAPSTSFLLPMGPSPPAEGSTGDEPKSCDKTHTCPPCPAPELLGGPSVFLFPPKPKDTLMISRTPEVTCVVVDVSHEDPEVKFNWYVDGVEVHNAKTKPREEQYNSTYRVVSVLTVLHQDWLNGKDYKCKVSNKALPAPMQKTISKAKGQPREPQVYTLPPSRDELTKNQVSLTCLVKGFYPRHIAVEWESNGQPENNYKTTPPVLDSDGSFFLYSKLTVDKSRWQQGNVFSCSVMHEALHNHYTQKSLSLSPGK
Sequence of UniProt P01375 (P01375 77-233 limits assumed): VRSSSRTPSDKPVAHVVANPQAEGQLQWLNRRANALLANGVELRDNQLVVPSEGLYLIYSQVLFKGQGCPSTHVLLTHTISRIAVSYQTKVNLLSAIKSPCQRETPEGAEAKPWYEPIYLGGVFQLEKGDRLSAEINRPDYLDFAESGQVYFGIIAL

bioactivity (A375 assay; HIC with sodium acetate gradient) [U/mg] | Bioassay 10^6 units/mg (n = 2); VA12 cells, production at 28° C., IGF-1 [units/mg] | Bioassay 10^6 units/mg (n = 2); VA12 cells, production at 32° C., IGF-1 [units/mg] | Bioassay 10^6 units/mg (n = 2); VA12 cells, production at 34° C., IGF-1 [units/mg] | Bioassay 10^6 units/mg (n = 2); VA12 cells, production at 37° C., IGF-1 [units/mg] | Substance | bioactivity (A375 cell killing neutralisation assay), compared to unfractionated material [%]
2.71e+06 |  |  |  |  | TNFR:Fc, HIC peak 2 fraction (Fc fusion) | 117
< 340000 |  |  |  |  | TNFR:Fc, HIC peak 3 fraction (Fc fusion) | 11
 | 2.07e+06 | 1.62e+06 | 950000 | 490000 | recombinant human TNFR:Fc fusion protein (TNFR-II:Fc), protein A purified, not HIC-fractionated | 
